B1: mAb100 (antibody, V domains shown)
VH: QVQLQESGPGLVKPSDTLSLTCTVSGGSLSSFYWSWIRQPPGKGLEWIGYIYYSGSPNYSPSLESRVTMSVDTTRNQISLKLDSVTAADTAVYYCVRASRSYYWGSYRPTAFDSWGQGTLVTVSS
VL: YELTQPLSVSVSPGQTAIFTCSGDNLGDKYVCWFQQRPGQSPMLLIYQDNKRPSGIPERFSGSNSGNTATLTISGTQSTDEADYYCQTWDSTVVFGGGTKLTVL
B2: CA45 (antibody, V domains shown)
VH: QVQLQEWGEGLVKPSETLSLTCAVYGGSISGYYHWNWIRLPPGKGLEWIGNIDGNSASTNYNPSLKTRVTISKDTSKNQISLKVRSLTAADTAVYYCARDPGFTIFGVVITSWSGLDSWGQGAVVTVSS
VL: DIQMTQSPSSLSASVGDTVTITCRASQSISNNLAWYQQRPRRAPQLLIYAASNLASGVPSRFSGSGSGTDFTLTISSLQAEDFAAYYCQQHNTLPLTFGGGTKVEIK
B3: ADI-15946 (antibody, V domains shown)
VH: EVQLVESGGGLVKPGGSLRLSCAASGFTFSNAWMSWVRQAPGKGLEWVGRIKSKTDGGTIDYAAPVKGRFTISRDDSKNTVYLQMTSLKTEDTAVYYCTTYTEDMRYFDWLLRGGETFDYWGQGTLVTVSS
VL: DIRLTQSPSSLSASVGDRVTITCRASHYISTYLNWYQQKPGKAPKLLIYAASNLQSGVPSRFSGSGFGTDFSLTISSLQPEDFATYHCQQSYSTPGRYTFGQGTKVEIK
notes: also called PE-64
B4: KZ52 (antibody, V domains shown)
VH: EVQLLESGGGLVKPGGSLRLSCAASGFTLINYRMNWVRQAPGKGLEWVSSISSSSSYIHYADSVKGRFTISRDNAENSLYLQMNSLRAEDTAVYYCVREGPRATGYSMADVFDIWGQGTMVTVSS
VL: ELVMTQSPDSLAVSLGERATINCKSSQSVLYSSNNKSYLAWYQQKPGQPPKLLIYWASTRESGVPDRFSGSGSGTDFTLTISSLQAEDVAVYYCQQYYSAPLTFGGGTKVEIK
notes: source: supplied in purified form (Integrated Biotherapeutics)
B5: ADI-15878 (antibody, V domains shown)
VH: QVQLVQSGVTLVQPGGSLRVSCAASGFTFSSYAMSWVRQAPGKGLEWVSAISGLGGSTYYADSVKGRFTISRDNSKNTLYLQMNSLRAEDTAVYYCAKDHRVWAAGYHFDYWGQGALVTVSS
VL: DIVLTQSPSTLSASVGDRVTITCRASQSISSWLAWYQQKPGEAPKLLISDASSLESGVPSRFSGSGSGTEFTLTISSLQPDDFATYYCQQYYSSPIFGGGTKVEIK
notes: also called PE-87; Control PE-87; source: supplied in purified form (Integrated Biotherapeutics)
B6: mAb114 (antibody, V domains shown)
VH: EVQLVESGGGLIQPGGSLRLSCAASGFALRMYDMHWVRQTIDKRLEWVSAVGPSGDTYYADSVKGRFAVSRENAKNSLSLQMNSLTAGDTAIYYCVRSDRGVAGLFDSWGQGILVTVSS
VL: DIQMTQSPSSLSASVGDRITITCRASQAFDNYVAWYQQRPGKVPKLLISAASALHAGVPSRFSGSGSGTHFTLTISSLQPEDVATYYCQNYNSAPLTFGGGTKVEIK
notes: as for B4

Target: T1, Ebola virus glycoprotein (EBOV GP), trimer of the GP1 + GP2 heterodimer lacking the transmembrane domain (Ebola virus, Mayinga strain, UniProt Q05320)
T1 construct: also called soluble Ebola virus glycoprotein; EBOV GP trimer complex of GP1 + GP2 heterodimer; source: Drosophila S2 cells; supplied by Integrated Biotherapeutics, purified
Test: SPR
Settings: both partners purified
T1 sequence (Q05320 33-637, one chain of several): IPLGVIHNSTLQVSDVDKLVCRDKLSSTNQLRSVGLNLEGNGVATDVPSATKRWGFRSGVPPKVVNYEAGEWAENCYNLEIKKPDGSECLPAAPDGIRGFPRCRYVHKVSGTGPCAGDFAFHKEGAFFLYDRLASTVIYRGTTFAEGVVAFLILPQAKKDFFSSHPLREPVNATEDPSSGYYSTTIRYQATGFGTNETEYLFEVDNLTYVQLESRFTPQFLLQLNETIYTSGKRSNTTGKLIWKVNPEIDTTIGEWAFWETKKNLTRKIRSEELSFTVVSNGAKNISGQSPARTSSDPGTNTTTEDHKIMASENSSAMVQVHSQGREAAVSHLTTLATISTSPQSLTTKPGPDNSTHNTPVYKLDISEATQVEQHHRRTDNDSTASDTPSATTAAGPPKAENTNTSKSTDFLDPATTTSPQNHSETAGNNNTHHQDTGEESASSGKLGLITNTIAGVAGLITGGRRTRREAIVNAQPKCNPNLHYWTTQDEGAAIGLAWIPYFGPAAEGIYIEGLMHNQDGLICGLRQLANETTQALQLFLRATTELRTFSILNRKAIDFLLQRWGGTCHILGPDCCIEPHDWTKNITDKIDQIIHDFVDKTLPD

| Binder | binding result |
| --- | --- |
| B1 | binds |
| B2 | binds |
| B3 | binds |

Target: T2, Ebola virus glycoprotein (EBOV GP), trimer of the GP1 + GP2 heterodimer lacking the transmembrane domain (Ebola virus, Mayinga strain, UniProt Q05320)
T2 construct: also called soluble Ebola virus glycoprotein; EBOV GP trimer complex of GP1 + GP2 heterodimer; source: Drosophila S2 cells; supplied by Integrated Biotherapeutics, purified
Test: SPR
Settings: both partners purified
T2 sequence (Q05320 33-637, one chain of several): as above

| Binder | binding result |
| --- | --- |
| B4 | binds |
| B5 | binds |
| B6 | binds |

From paper PMC7454256 (Antibody Therapeutics, 2020)
